Marks after values point to notes of the source that are not given here.

A short description of series [1]: Photophysical properties of fluorophores and RNA-fluorophore complexes (Squash study). In kind it is physicochemical. The protocol: All RNAs used for in vitro studies (except the initial hits from SELEX and the DE2-6 mutants) were purified using 8% denaturing PAGE (7M urea) and eluted in 0.3 M NaOAc (pH 5.2) overnight. The RNA was ethanol precipitated and quantified using absorbance in a NanoDrop 2000 spectrometer. All in vitro RNA properties were measured in 40 mM HEPES-KOH (pH 7.4), 100 mM KCl, 0.5 mM MgCl2 buffer unless specified.
Absorption, excitation, and emission spectra were measured using conditions where the RNA is in excess and the fluorophore is limiting to ensure that no free fluorophore contributes to the absorbance or fluorescence signal (FIGS. 7A-7D).
All quantum yields were determined by comparing each RNA-fluorophore complex with Broccli-DFHBI-1T or Corn-DFHO. All measurements for quantum yield were taken in the presence of excess RNA (10 μM final) compared to the fluorophores (0.2 μM final) to avoid interference from unbound fluorophore. The integral of the emission spectra for each Squash-fluorophore complex was compared with the corresponding integrals for Broccoli or Corn to calculate the quantum yield.

In the next series the test system is HEK293T cells. In words: RNA assemblies of multivalent Corn or Beetroot in cells. It counts as cell-based. The settings on record: circular RNA, means±s.d. The procedure:
FIGS. 33A-33C provide the dissociation constant (Kd) of Beetroot homodimer. […] These RNAs were incubated at 20° C. for 12 hours and then analyzed using non-denaturing gel electrophoresis (FIG. 33A). The fraction of Beetroot monomer (FIG. 33B) and Beetroot dimer (FIG. 33C) were quantified after SYBR Gold staining. […] The RNA band marked with an asterisk (*) reflects an RNA side product from in vitro transcription. The same side product band was also observed in FIGS. 27B-27C. Quantification shown in […] is based on two independent experiments. FIG. 33D are images showing genetic encoding of simple macromolecular RNA assemblies in cells using Corn when circular RNAs containing 3 and 5 copies of Corn were expressed in HEK293T cells. Clusters of these Corn-containing RNAs were observed as large intracellular puncta. Data shown here is a representative image from three independent cell cultures. Scale bar, 20 μm. FIG. 33E is a graph showing the quantification of the fraction of Corn and Beetroot in the cell that accumulates in puncta. As the valency of Corn increases from three to five, the fraction of Corn participating in the RNA assembly increases from 28±12% to 57±14%. Compared to 5× Corn, a fraction of 27±11% of 5× Beetroot are participating in the Beetroot RNA assembly. Values are means±s.d. FIG. 33F is a graph showing quantification of RNA assembly size in cells. Shown are the size distribution of RNA assemblies created using the indicated multivalent Corn or Beetroot RNA. As the valency of Corn increases from three to five, an increase in the median RNA assembly size was noticed from 0.88±0.37 μm to 1.0±0.54 μm. Compared to 5× Corn, 5× Beetroot assembly has a size of 0.68±0.25 μm. Values are means±s.d.
For to live-cell fluorescence imagining experiments, HEK293T cells were seeded into 35-mm imaging dishes precoated with poly-D-lysine (Mattek Corporation, P35GC-1.5-14C) and mouse laminin I (Cultrex, 3401-010-02) with a cell density of 4.5×10^5 cells per dish. On the next day, HEK293T cells were transfected with DNA plasmids as indicated in figures with fluorescence imaging experiments using FuGENE HD. Transfections were performed according FuGENE HD manufacturer's instructions. HEK293T cells were then cultured for two days before imaging.
Prior to imaging experiments, HEK293T cells were incubated with 1 μl of Hoechst 33342 (Thermo Fisher Scientific, H3570) per 2 ml of imaging media (phenol red-free Dulbeco's modified Eagle's medium (Thermo Fisher Scientific 31053-028) supplemented with 10% fetal bovine serum (Corning 35-010-CV), 100 U ml-1 of penicillin and […] of streptomycin, 1× GlutaMAX (Thermo Fisher Scientific, 35050-061) and 1 mM sodium pyruvate (Thermo Fisher Scientific, 11360-070)). For imaging experiments of RNA-fluorophore complex, HEK293T cells were incubated with imaging media supplemented with a final concentration of 10 μM fluorophore (DFHO or DFAME) and 5 mM MgCl2 for one hour prior to imaging.
For all imaging experiments, an epifluorescence inverted microscope (Nikon Eclipse TE2000-E) was used equipped with a CoolSnap HQ2 CCD camera and a 130-W Nikon mercury lamp. The microscope and camera were controlled using the NIS-Elements Advanced Research software (Nikon). Cells were imaged with a 60× oil objective with a numerical aperture of 1.4 (Nikon) at 37° C. A FITC filter cube (with excitation filter 470±20 nm, dichroic mirror 495 nm (long pass) and emission filter 525±25 nm) was used for imaging GFP-N-peptide. A YFP filter cube (with excitation filter 500±12 nm, dichroic mirror 520 nm (long pass) and emission filter 542±13.5 nm) was used for imaging Corn-DFHO complex. A tetramethylrhodamine filter cube (with excitation filter 560±20 nm, dichroic mirror 585 nm (long pass) and emission filter 630±37.5 nm) was used for imaging mCherry-MCP and Beetroot-DFAME complex.

The mark [2] stands for this setting: 40 mM HEPES-KOH (pH 7.4), 100 mM KCl, 0.5 mM MgCl2.

In series [1] (setting [2]), `CC1=N/C(=C\c2cc(F)c(O)c(F)c2)C(=O)N1CC(F)(F)F` [DFHBI-1T, (Z)-4-(3,5-difluoro-4-hydroxybenzylidene)-2-methyl-1-(2,2,2-trifluoroethyl)-1H-imidazol-5(4H)-one] had an Emission maximum of 495 nm and an Excitation maximum of 426 nm. Further, the Fluorescence quantum yield in series [1] (compared with Broccoli-DFHBI-1T or Corn-DFHO) was determined as 0.00098. The Extinction coefficient in series [1] (free DFHBI-1T, at 452 nm) was 19,900* M^−1cm^−1. Besides, in series [1] (relative to Broccoli), the “Brightness (extinction coefficient × quantum yield)” value was 0.12.

B1: 5× Corn: circular RNA containing five Corn monomers, same as 5X Corn-MS2, SEQ ID NO: 101 (nucleic acid)
chain: AACCAUGCCGACUGAUGGCAGUACCGUAGGCGAAUUCUUGCCAUGUGUAUGUGGGAGGCCCGGAUAGCUCAGUCGGUAGAGCAGCGGCCGCGCGAUUCGAGGAAGGAGGUCUGAGGAGGUCACUGAAUCGCGCGGCCGCGGGUCCAGGGUUCAAGUCCCUGUUCGGGCCUCCCACAUACUCUGAUGAUCCAAAACUGCCCGAGGAUCAUUCAUGGCAAACUCGACGUUCGUCAGACUCCUCGCGAUGUCUAUGCGGGAGGCCCGGAUAGCUCAGUCGGUAGAGCAGCGGCCGCGCGAUUCGAGGAAGGAGGUCUGAGGAGGUCACUGAAUCGCGCGGCCGCGGGUCCAGGGUUCAAGUCCCUGUUCGGGCCUCCCGCAUAGUCUGAUCAUCCAAAACUGCCCGAGGGGAUGAUUCAUCGCGAAUCGCGACGAUCGUCACUACCGGUUCACUUUGUAGACCAGGCUGGUGUACAACUUGCGACUUUGCCAUGUGUAUGUGGGAGGCCCGGAUAGCUCAGUCGGUAGAGCAGCGGCCGCGCGAUUCGAGGAAGGAGGUCUGAGGAGGUCACUGAAUCGCGCGGCCGCGGGUCCAGGGUUCAAGUCCCUGUUCGGGCCUCCCACAUACUCUGAUGAUCCACGCGUAACAUGAGGAUCACCCAUGUCGAGGUACCAUCAUUCAUGGCAAAGUCGCAAGUAUCGGUCAACCUAGUGGGCCCAGUGACGAUCGUCGCCCAUCGCCUUGUGUCUGUUGGAGGCCCGGAUAGCUCAGUCGGUAGAGCAGCGGCCGCGCGAUUCGAGGAAGGAGGUCUGAGGAGGUCACUGAAUCGCGCGGCCGCGGGUCCAGGGUUCAAGUCCCUGUUCGGGCCUCCAACAGACUCUGACGAUCCAAAACUGCCCGAGGGGAUCGUUCAAGGCGAGAGCUCGUCUGACGAACGUCGAACUCGCCGUGUGUGUGUAGGAGGCCCGGAUAGCUCAGUCGGUAGAGCAGCGGCCGCGCGAUUCGAGGAAGGAGGUCUGAGGAGGUCACUGAAUCGCGCGGCCGCGGGUCCAGGGUUCAAGUCCCUGUUCGGGCCUCCUACACACUCUGACGAUCCAAAACUGCCCGAGGGGAUCGUUCACGGCGAACUCACGUCGGUGGAGCUAGCGCCUACGGUACUGCCAUCAGUCGGCGUGGACUGUAG
modifications: circular
In the case of B1, in the series with HEK293T cells, the “Fraction of RNA in the cell that accumulates in puncta” value (“Fraction of RNA” for short) is on record as 57±14% and the RNA assembly size is recorded as 1.0±0.54 μm.

B2: 3× Corn: circular RNA containing 3 copies of Corn, SEQ ID NO: 100 (nucleic acid)
chain: AACCAUGCCGACUGAUGGCAGUACCGUAGGCGAAUUCUUGCCAUGUGUAUGUGGGAGGCCCGGAUAGCUCAGUCGGUAGAGCAGCGGCCGCGCGAUUCGAGGAAGGAGGUCUGAGGAGGUCACUGAAUCGCGCGGCCGCGGGUCCAGGGUUCAAGUCCCUGUUCGGGCCUCCCACAUACUCUGAUGAUCCAAAACUGCCCGAGGAUCAUUCAUGGCAAACUCGACGUUCGUCAGACUCCUCGCGAUGUCUAUGCGGGAGGCCCGGAUAGCUCAGUCGGUAGAGCAGCGGCCGCGCGAUUCGAGGAAGGAGGUCUGAGGAGGUCACUGAAUCGCGCGGCCGCGGGUCCAGGGUUCAAGUCCCUGUUCGGGCCUCCCGCAUAGUCUGAUCAUCCAAAACUGCCCGAGGGGAUGAUUCAUCGCGAAUCGCGACGAUCGUCACUACCGGCGUCUGACGAACGUCGAACUCGCCGUGUGUGUGUAGGAGGCCCGGAUAGCUCAGUCGGUAGAGCAGCGGCCGCGCGAUUCGAGGAAGGAGGUCUGAGGAGGUCACUGAAUCGCGCGGCCGCGGGUCCAGGGUUCAAGUCCCUGUUCGGGCCUCCUACACACUCUGACGAUCCAAAACUGCCCGAGGGGAUCGUUCACGGCGAACUCACGUCGGUGGAGCUAGCGCCUACGGUACUGCCAUCAGUCGGCGUGGACUGUAG
modifications: circular
B2: in the series on HEK293T cells, the “Fraction of RNA” value is on record as 28±12% and the RNA assembly size was 0.88±0.37 μm.

B3: 5× Beetroot: circular RNA comprising 5× Beetroot fused to boxB, SEQ ID NO: 102 (nucleic acid)
chain: AACCAUGCCGACUGAUGGCAGUACCGUAGGCGAAUUCUUGCCAUGUGUAUGUGGGAGGCCCGGAUAGCUCAGUCGGUAGAGCAGCGGCCGGUUAGGCAGAGGUGGGUGGUGUGGAGGAGUAUCUGUCCGGCCGCGGGUCCAGGGUUCAAGUCCCUGUUCGGGCCUCCCACAUACUCUGAUGAUCCAAAACUGCCCGAGGAUCAUUCAUGGCAAACUCGACGUUCGUCAGACUCCUCGCGAUGUCUAUGCGGGAGGCCCGGAUAGCUCAGUCGGUAGAGCAGCGGCCGGUUAGGCAGAGGUGGGUGGUGUGGAGGAGUAUCUGUCCGGCCGCGGGUCCAGGGUUCAAGUCCCUGUUCGGGCCUCCCGCAUAGUCUGAUCAUCCAAAACUGCCCGAGGGGAUGAUUCAUCGCGAAUCGCGACGAUCGUCACUACCGGUGACUCGCUAUCGGUUAUGGCAUGUACAACUUGCGACUUUGCCAUGUGUAUGUGGGAGGCCCGGAUAGCUCAGUCGGUAGAGCAGCGGCCGGUUAGGCAGAGGUGGGUGGUGUGGAGGAGUAUCUGUCCGGCCGCGGGUCCAGGGUUCAAGUCCCUGUUCGGGCCUCCCACAUACUCUGAUGAUCCACGCGUACAUUGGCCCUGAAAAAGGGCAAGCGAGGUACCAUCAUUCAUGGCAAAGUCGCAAGUAUCGGUCAACCUAGUGGGCCCAGUGACGAUCGUCGCCCAUCGCCUUGUGUCUGUUGGAGGCCCGGAUAGCUCAGUCGGUAGAGCAGCGGCCGGUUAGGCAGAGGUGGGUGGUGUGGAGGAGUAUCUGUCCGGCCGCGGGUCCAGGGUUCAAGUCCCUGUUCGGGCCUCCAACAGACUCUGACGAUCCAAAACUGCCCGAGGGGAUCGUUCAAGGCGAGAGCUCGUCUGACGAACGUCGAACUCGCCGUGUGUGUGUAGGAGGCCCGGAUAGCUCAGUCGGUAGAGCAGCGGCCGGUUAGGCAGAGGUGGGUGGUGUGGAGGAGUAUCUGUCCGGCCGCGGGUCCAGGGUUCAAGUCCCUGUUCGGGCCUCCUACACACUCUGACGAUCCAAAACUGCCCGAGGGGAUCGUUCACGGCGAACUCACGUCGGUGGAGCUAGCGCCUACGGUACUGCCAUCAGUCGGCGUGGACUGUAG
modifications: circular
In the case of B3, in the series with HEK293T cells, the “Fraction of RNA” value is listed as 27±11% and the RNA assembly size came out at 0.68±0.25 μm.

Source of the values: patent publication US20250043290A1, “RNA SEQUENCES THAT INDUCE FLUORESCENCE OF SMALL MOLECULE FLUOROPHORES, MOLECULAR COMPLEXES, SENSORS, AND METHODS OF USE THEREOF” (CORNELL UNIVERSITY, priority 2021, published 2025).
